Results reported in US20220204643A1 (published 2022).
Where two headings read alike, the source gives them in different places.

Key:
[1] = target: T1, quinoid dihydropteridine reductase, transcript variant 1 (human, UniProt P09417 2-244); test: protein array
T1 construct: on protein array; also called QDPR
T1 sequence: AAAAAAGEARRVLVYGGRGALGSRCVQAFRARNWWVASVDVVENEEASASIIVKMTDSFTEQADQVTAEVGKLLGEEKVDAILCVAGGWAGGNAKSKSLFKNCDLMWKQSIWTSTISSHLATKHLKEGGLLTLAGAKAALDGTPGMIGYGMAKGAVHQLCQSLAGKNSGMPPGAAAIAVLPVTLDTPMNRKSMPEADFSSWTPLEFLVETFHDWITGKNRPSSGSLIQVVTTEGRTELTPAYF

[2] = target: T2, cancer/testis antigen 1A (human, UniProt P78358 1-180); test: protein array
T2 construct: on protein array; also called CTAG1A

[3] = target: T3, DIX domain containing 1, transcript variant 2 (human, UniProt Q155Q3 220-683); test: protein array
T3 construct: on protein array; also called DIXDC1
T3 sequence: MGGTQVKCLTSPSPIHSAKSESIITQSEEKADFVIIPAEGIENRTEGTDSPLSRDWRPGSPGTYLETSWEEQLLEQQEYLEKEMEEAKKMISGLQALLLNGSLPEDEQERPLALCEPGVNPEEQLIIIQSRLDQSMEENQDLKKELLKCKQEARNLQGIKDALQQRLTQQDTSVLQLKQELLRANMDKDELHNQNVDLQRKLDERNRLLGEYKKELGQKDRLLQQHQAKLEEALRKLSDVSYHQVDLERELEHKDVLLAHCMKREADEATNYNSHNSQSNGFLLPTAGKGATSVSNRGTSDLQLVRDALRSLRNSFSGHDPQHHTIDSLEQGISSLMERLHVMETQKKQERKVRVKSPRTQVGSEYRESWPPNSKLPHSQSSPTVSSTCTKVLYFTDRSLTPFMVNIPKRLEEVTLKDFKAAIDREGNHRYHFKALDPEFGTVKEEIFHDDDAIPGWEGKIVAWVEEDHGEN

[4] = target: T4, aarF domain containing kinase 5 (human, UniProt Q3MIX3 1-580); test: protein array
T4 construct: on protein array; also called ADCK5

[5] = target: T5, ubiquilin 1, transcript variant 2 (human, UniProt Q9UMX0 2-589)
T5 construct: HuProt array protein, full-length recombinant from yeast; also called UBQLN1
T5 sequence (Q9UMX0 other isoform, or with tags, fused parts or gaps mutant limits assumed): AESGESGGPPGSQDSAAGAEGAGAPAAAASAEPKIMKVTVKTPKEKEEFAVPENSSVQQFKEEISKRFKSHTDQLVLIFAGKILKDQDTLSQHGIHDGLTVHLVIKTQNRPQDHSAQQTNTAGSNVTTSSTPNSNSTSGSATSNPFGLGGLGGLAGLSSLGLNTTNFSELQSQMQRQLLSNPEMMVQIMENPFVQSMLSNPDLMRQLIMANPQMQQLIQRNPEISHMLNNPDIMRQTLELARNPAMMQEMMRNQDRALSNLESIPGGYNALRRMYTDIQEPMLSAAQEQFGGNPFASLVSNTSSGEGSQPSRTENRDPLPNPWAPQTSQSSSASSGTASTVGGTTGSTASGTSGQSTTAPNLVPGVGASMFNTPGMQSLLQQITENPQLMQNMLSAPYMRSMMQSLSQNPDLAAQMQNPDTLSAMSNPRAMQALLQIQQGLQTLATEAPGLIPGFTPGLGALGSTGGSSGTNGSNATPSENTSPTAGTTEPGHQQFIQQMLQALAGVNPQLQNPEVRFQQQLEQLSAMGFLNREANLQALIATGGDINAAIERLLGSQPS

[6] = target: T6, quinoid dihydropteridine reductase, transcript variant 1 (human, UniProt P09417 2-244)
T6 construct: HuProt array protein, full-length recombinant from yeast; also called QDPR
T6 sequence: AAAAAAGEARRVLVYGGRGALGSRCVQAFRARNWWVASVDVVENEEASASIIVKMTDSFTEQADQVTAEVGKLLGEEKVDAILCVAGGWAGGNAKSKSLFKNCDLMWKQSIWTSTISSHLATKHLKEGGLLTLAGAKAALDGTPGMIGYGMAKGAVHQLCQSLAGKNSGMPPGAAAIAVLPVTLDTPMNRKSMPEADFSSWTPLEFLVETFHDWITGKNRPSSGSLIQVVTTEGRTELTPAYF

[7] = target: T7, ubiquilin 1, transcript variant 2 (human, UniProt Q9UMX0 2-589); test: protein array
T7 construct: on protein array; also called UBQLN1
T7 sequence (Q9UMX0 other isoform, or with tags, fused parts or gaps mutant limits assumed): as the sequence (Q9UMX0 other isoform, or with tags, fused parts or gaps mutant limits assumed) above

[8] = target: T8, Jupiter microtubule associated homolog 2 (human, UniProt Q9H910 1-190)
T8 construct: also called HN1L
T8 sequence: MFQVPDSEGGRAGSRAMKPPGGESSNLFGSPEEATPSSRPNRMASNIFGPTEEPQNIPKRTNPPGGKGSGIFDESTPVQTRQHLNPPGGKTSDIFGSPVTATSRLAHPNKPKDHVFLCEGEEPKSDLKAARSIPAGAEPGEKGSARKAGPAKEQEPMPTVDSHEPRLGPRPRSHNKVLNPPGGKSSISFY

[9] = target: T9, kelch like ECH associated protein 1, transcript variant 1 (human, UniProt Q14145 1-624); test: protein array
T9 construct: on protein array; also called KEAP1

[10] = target: T10, influenza virus NS1A binding protein (human, UniProt Q9Y6Y0 1-642); test: protein array
T10 construct: on protein array; also called IVNS1ABP
T10 sequence: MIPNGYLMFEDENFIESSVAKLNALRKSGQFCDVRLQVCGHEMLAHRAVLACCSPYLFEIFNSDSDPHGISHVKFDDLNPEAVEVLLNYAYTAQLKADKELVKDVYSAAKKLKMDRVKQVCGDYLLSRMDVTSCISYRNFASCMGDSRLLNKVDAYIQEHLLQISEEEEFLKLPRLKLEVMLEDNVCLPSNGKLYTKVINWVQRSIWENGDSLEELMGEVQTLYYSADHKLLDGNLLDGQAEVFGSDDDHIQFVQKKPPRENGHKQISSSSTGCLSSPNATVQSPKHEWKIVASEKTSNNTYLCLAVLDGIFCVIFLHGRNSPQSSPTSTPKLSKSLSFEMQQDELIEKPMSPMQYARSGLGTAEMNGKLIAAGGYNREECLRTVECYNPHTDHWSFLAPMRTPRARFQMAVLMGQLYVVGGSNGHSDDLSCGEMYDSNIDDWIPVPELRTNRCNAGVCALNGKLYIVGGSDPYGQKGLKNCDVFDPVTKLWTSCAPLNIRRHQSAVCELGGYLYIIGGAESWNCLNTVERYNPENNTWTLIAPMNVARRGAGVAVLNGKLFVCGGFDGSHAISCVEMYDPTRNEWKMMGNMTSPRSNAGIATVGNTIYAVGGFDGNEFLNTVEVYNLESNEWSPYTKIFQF

T9 sequence (Q14145 whole entry, change not shown): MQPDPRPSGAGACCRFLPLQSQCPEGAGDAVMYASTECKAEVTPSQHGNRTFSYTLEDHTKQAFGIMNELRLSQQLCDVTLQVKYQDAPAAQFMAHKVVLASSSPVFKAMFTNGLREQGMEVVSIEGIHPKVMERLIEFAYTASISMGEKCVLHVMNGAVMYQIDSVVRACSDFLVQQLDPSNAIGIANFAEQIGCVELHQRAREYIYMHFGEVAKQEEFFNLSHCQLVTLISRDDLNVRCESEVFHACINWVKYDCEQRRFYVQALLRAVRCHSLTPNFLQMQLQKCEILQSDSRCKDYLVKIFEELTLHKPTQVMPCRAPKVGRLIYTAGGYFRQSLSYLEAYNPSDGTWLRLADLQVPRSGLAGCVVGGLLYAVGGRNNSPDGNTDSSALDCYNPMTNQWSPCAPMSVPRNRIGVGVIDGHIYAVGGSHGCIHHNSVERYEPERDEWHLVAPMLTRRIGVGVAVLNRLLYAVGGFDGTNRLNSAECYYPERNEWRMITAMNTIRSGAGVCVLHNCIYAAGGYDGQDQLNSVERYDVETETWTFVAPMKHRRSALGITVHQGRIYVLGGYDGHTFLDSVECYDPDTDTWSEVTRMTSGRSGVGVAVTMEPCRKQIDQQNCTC
T4 sequence (Q3MIX3 other isoform, or with tags, fused parts or gaps limits assumed): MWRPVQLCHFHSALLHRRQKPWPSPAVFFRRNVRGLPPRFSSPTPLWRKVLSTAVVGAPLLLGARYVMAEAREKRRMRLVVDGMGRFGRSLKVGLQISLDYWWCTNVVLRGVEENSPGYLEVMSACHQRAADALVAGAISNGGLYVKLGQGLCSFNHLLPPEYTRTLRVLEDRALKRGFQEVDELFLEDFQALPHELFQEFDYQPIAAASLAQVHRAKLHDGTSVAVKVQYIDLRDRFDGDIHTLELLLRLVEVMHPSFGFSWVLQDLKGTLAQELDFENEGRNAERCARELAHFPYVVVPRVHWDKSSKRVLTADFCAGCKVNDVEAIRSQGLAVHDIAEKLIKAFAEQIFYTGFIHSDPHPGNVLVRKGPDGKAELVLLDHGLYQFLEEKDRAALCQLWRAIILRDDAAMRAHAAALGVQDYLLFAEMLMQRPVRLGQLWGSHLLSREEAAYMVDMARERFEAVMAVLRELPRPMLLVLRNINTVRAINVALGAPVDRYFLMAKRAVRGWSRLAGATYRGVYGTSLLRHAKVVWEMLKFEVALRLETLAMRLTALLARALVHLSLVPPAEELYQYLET
T2 sequence (P78358 whole entry): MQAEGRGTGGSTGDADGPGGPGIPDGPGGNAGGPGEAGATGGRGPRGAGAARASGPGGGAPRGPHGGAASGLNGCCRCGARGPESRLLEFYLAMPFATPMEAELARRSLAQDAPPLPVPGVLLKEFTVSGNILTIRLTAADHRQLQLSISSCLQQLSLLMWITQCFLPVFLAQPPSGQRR

B1: TLUS1001 (antibody, V domains shown)
VH: QVQLQESGPGLVKPSETLSLTCTVSGDSISSNYWSWIRQPPGKGLEWIGYIYYSGSTNYNPSLKSRVTISVDTSKNQFSVKLSSVTAADTAVYYCARYGDYSFDPWGQGTLVTVSS
VL: not shown
notes: VH/VL tied via antigen in summary, not by name in this stretch
binding result [1]: binds

B2: TBLA1012 (antibody, V domains shown)
VH: LLQLVESGGGVVQPGRSLRLSCAASGFTFTRHGFHWVRQAPGKGLEWVAVISSDGRKIHYTDSVKGRFVISRDDSDNTVYLHMNSLRLGDTALYYCARDSGGTPGPYWGQGTLVTVSS
VL: DVVMTQSPLSLPVTLGQPASISCRSSQSLVHSDGNTYLNWFQQRPGQSPRRLIYMVSNRDSGVPDRFSGSGSGTDFTLKISRVEAEDVGVYYCLQGTHWPPTIGQGTKVEIE
notes: VH/VL only
binding result [2]: binds

B3: TMEL1034 (antibody, V domains shown)
VH: QLQLQESGPGLVKPWETLSLSCTVSGGSISSSFFYWGWIRQPPGKGLQWIGNIHYTGSTYYNPSLKSRITMSVDTSKNQFSLKLSSVTAADTAVYYCARHRVGDSPGLHYWGQGTLVTVSS
VL: SYELTQPPSVSVSPGQTARITCSGDALPKKYAFWYQQKSGQAPVLVIYEDSKRPSGIPERFSGSSSGTMATLTISGAQVEDESDYYCYSTDSSGNVWVFGGGTKLTVLG
notes: as for B1
binding result [1]: binds

B4: TTES1001 (antibody, V domains shown)
VH: PVQLVQSGAEVKKPGSSVQVSCKGSGGTFSEYGISWLRQAPGQGLEWIGGIIPVLGIPNYAQKFRGRVTITADESTGSAYMEVSSLRSEDTAVYYCAREGLRLARGWFHPWGQGTLVTVTS
VL: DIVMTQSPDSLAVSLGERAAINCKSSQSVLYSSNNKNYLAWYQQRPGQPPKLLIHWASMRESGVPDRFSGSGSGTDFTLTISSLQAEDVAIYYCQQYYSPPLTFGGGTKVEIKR
notes: as for B1
binding result [3]: binds

B5: TTES1009 (antibody, V domains shown)
VH: EVQLVESGGGLVQPGGSLRLSCAASGFTFSSYEMNWVRQAPGKGLEWVSYISSSGSTIYYADSVKGRFTISRDNAKNSLYLQMNSLRAEDTAVYYCARRGFYYYYGMDVWGQGTTVTVSS
VL: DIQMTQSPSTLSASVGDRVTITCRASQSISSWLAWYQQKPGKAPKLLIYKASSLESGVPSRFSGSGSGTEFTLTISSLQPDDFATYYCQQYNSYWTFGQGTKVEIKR
notes: as for B1
binding result [4]: binds

B6: TTES1010 (antibody, V domains shown)
VH: EVQLVESGGGLVQPGGSLRLSCAASGFTFSSYSMNWVRQAPGKGLEWVSYISSSSSTIYYADSVKGRFTISRDNAKNSLYLQMNSLRAEDTAVYYCASLLGGDPDYWGQGTLVTVSS
VL: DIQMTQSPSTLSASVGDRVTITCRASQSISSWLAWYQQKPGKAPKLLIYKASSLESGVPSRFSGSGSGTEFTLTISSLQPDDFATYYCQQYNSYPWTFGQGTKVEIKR
notes: as for B1
binding result [3]: binds

B7: TTHY1004 (antibody, V domains shown)
VH: PVQLQESGPGLVKPSQTLSLTCTVSGGSISSGTYYWSWIRQPAGKGLEWIGRIYASGSTNYNPSLKSRVTISVDTSKNQFSLKLTSVTAADTAVYYCARYSGSYPLGFDYWGQGTLVTVSS
VL: DIQMTQSPSSLSASVGDRVTITCRASQSISTYLNWYQQKPGMAPKLLIYAASTLQSGVPSRFSGSGSATDYTLTISSLQPEDFATYYCQQSYNTPLTFGGGTKVDIKR
notes: as for B1
binding result [2]: binds

B8: TBRE1030 (antibody, V domains shown)
VH: QVQLQESGPGLVKPSQTLSLTCTVSGGSISSGGYYWSWIRQHPGKGLEWIGYIYYSGSTYYNPSLKSRVTISVDTSKNQFSLKLSSVTAADTAVYYCARDLSCSSTSCHDAFDIWGQGTMVTVSS
VL: not shown
notes: detected with anti-human IgG Fc
binding result [5]: binds

B9: TLUS1001 (antibody, V domains shown)
VH: QVQLQESGPGLVKPSETLSLTCTVSGDSISSNYWSWIRQPPGKGLEWIGYIYYSGSTNYNPSLKSRVTISVDTSKNQFSVKLSSVTAADTAVYYCARYGDYSFDPWGQGTLVTVSS
VL: not shown
notes: as for B8
binding result [6]: binds

B10: TBRE1030 (antibody, V domains shown)
VH: QVQLQESGPGLVKPSQTLSLTCTVSGGSISSGGYYWSWIRQHPGKGLEWIGYIYYSGSTYYNPSLKSRVTISVDTSKNQFSLKLSSVTAADTAVYYCARDLSCSSTSCHDAFDIWGQGTMVTVSS
VL: not shown
notes: VH/VL only
binding result [7]: binds

B11: TMEL1034 (antibody, V domains shown)
VH: QLQLQESGPGLVKPWETLSLSCTVSGGSISSSFFYWGWIRQPPGKGLQWIGNIHYTGSTYYNPSLKSRITMSVDTSKNQFSLKLSSVTAADTAVYYCARHRVGDSPGLHYWGQGTLVTVSS
VL: SYELTQPPSVSVSPGQTARITCSGDALPKKYAFWYQQKSGQAPVLVIYEDSKRPSGIPERFSGSSSGTMATLTISGAQVEDESDYYCYSTDSSGNVWVFGGGTKLTVLG
notes: as for B8
binding result [6]: binds

B12: TOVA1008 (antibody, V domains shown)
VH: ELQLVESGGGLVQPGGSLRLSCAASGFTFSSYWMSWVRQAPGKGLEWVANINQDGGEKYYVDSVKGRFTISRDNAKNSLYLQMNSLRAEDTAVYYCAHYYYDSSGYYQNAEYFQYWGQGTLVTVSS
VL: DIQMTQSPPSLSASVGDRVTITCQASQDISNYLNWYQQKPGKTPKLLIYAASTLETGVPSRFSGSGSGTDFTFTINSLQPEDIATYYCQQYDSLPLTFGGGTKVEIKR
binding result [8]: binds

B13: TBRE1052 (antibody, V domains shown)
VH: PVQLIQSGAEVRKPGASVKVSCKVSGYTLSELSLHWVRQAPGKGLEWMGTFDPEDGETVYAQKFQGRVTVTEDTSTDTAYIDLSSLKSEDTAVYYCATDGPLHTSGLDYWGQGTLVTVSS
VL: EIVLTQSPATLSLSPGERATLSCRASQSISSNLAWYQQKPGQAPRLLIYDASNRATGIPARFSGSGSGTDFTLTISSLEPEDFAVYYCQQHSNWPELTFGGGTKVEIKR
notes: VH/VL only
binding result [9]: binds

B14: TCER1004 (antibody, V domains shown)
VH: VVQLVESGGGLVQPGGSLRLSCAASGFTFSSYSMNWVRQAPGKGLEWLSYVSSSGSTMYYADSVKGRFTISRDTAKNSLFLQMNSLRAEDTAVYYCAKGGPLRPFDIWGQGTLVTVSS
VL: VIQMTQSPTSLSASVGDRVTITCRASQSISSYLNWYQQKLGKAPKLLIYAASSLQSGVPSRFSGSGSGTDFTLTISSLQPEDFATYYCQQSYSTSLTFGGGTKVEIKR
notes: VH/VL only
binding result [10]: binds

B15: TCOL1007 (antibody, V domains shown)
VH: PVQLVESGGGVVQPGRSLRLSCAASGFTFSNYGMHWVRQAPGKGLEWVAVISDDGNDKDNADSVKGRFTISRDNSKNTLYLRMNSLRREDTAVYYCARDGFDYWGQGTLVTVSS
VL: DIVMTQTPLSMPVTPGEPASISCRSSQSLLDSDDGKTYLDWYLQKPGQSPQLLIYTVSYRASGVPDRFSGSGSGTDFTLKISRVEAEDVGVYYCMQRIEFPFTFGPGTKVDIKR
notes: VH/VL only
binding result [9]: binds

B16: THNS1008 (antibody, V domains shown)
VH: QVQLQESGPGLVKPSQTLSLTCAVSGGSISSGGYPWSWIRQPPGKGLEWIGYISYSGSTDYNPSLKSRVTISLDTSSNQFSLNLSSLTAADTAVYYCARGAAFYYGMDVWGQGTTVTVSS
VL: DIQMTQSPSSLSASVGDRVTITCRASQSISTYLNWYQQKPGKAPKLLIYVASSLQSGVPSRFSGSGSGTDFTLTISGLQPEDFATYYCQQSYSTPYTFGQGTKLEIKR
notes: VH/VL only
binding result [9]: binds

B17: TKIC1002 (antibody, V domains shown)
VH: PVQLQESGPGLVKPSETLSLTCTVSGGSISSYYWSWIRQPPGKGLEWIGYLFYSGSTNYNPSLKSRVTISVDTSKNQFSLKLGSVTAADTAVYYCARHRIFGLDVWGQGTTVTVSS
VL: EIVLTQSPGTLSLSLGERATLSCRASQSVSGSHLAWYQQKPGQAPRLLIYDASSRATGIPDRFSGSGSGTEFTLTISRLEPEDFAVYYCQQYGSSPLWFGQGTKVEIK
notes: VH/VL only
binding result [4]: binds
